Results from PMC4513857, “PRC2 regulates RNA polymerase III transcribed non-translated RNA gene transcription through EZH2 and SUZ12 interaction with TFIIIC complex” (Nucleic Acids Research, 2015).

Biological target: T1, GST-EZH2 fragment A, N-terminal region (Domain I + Domain II), aa 1-522 (UniProt Q15910 1-522)
T1 construct: Cloned in pGEX-4T-1; also called fragment A of EZH2; source: E. coli BL21, purified (Glutathione Sepharose 4B)
T1 sequence (looked up): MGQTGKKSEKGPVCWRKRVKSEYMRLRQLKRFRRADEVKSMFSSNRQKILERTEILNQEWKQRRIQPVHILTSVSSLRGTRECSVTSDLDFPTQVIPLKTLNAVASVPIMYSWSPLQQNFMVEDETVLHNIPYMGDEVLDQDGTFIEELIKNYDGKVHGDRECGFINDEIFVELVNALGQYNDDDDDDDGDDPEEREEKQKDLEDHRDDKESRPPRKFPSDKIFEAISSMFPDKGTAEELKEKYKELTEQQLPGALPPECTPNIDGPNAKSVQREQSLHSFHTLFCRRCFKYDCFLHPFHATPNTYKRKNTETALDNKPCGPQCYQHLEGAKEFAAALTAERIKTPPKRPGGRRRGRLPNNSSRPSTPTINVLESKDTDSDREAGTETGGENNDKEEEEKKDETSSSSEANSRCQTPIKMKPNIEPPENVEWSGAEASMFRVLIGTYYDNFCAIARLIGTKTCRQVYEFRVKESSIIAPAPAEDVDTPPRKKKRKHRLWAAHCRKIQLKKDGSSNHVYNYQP
Test: pull-down; in vitro pull-down with purified proteins: GST-EZH2 (aa 1-522) and MBP-TFIIIC102 fragment C (aa 524-886)
Settings: both partners purified

binding result: binds
B1: MBP-TFIIIC102 fragment C (aa 524-886) (domain or fragment, UniProt Q9Y5Q9 524-886, looked up)
chain: QDANAAQQELKLLLHRSTLLFSQGKMYGYVDTLLTMLAMLLKVAMNRAQVCLISSSKSGERHLYLIKVSRDKISDSNDQESANCDAKAIFAVLTSVLTKDDWWNLLLKAIYSLCDLSRFQEAELLVDSSLEYYSFYDDRQKRKELEYFGLSAAILDKNFRKAYNYIRIMVMENVNKPQLWNIFNQVTMHSQDVRHHRFCLRLMLKNPENHALCVLNGHNAFVSGSFKHALGQYVQAFRTHPDEPLYSFCIGLTFIHMASQKYVLRRHALIVQGFSFLNRYLSLRGPCQESFYNLGRGLHQLGLIHLAIHYYQKALELPPLVVEGIELDQLDLRRDIAYNLSLIYQSSGNTGMAQTLLYTYCSI
notes: source: purified
